This data set deals with Human Galectin-3 protein (Acro Biosystems, GA3-H5129). Nature of the data set: ELISA, hGal3 coated, competitor hTIM3 (FIG. 24). In general terms: ELISA stands for enzyme-linked immunosorbent assay.

B1: 15G7.2A7 (protein)
chain 1: EVQLQQSGPELVKPGASVKISCKASGYTFTDYYMNWVKQSHGKSLEWIGDINPNNGGTNYNQKFKGKATLTVDKSSSTAYMELRSLTSEDSAVYYCTSGYGFPYWGQGTLVTVSA
chain 2: DIQMNQSPSSLSASLGDTISITCRASQNINIWLSWYQQKPGNIPQLLIYKASNLHTGVPSRFSGSGSGTDFTLTISSLQPEDIATYYCLQGQSYPLTFGAGTKLVMK
For the protein B1, the “GAL3-TIM3 assembly, % of level without antibody” value was “to 50-75% of levels observed in the absence of a GAL3-targeted antibody”.

B2: 20D11.2C6 (protein)
chain 1: EVQLQQSGPELVKPGASVKISCKASGYTFTDFYINWVKQSHGKSLEWIGDINPKNGGINYNPKFKIKATLTVDKSSSTSYMDLRGLTSEDSAVYYCTSGYGFPYWGQGTLVTVSA
chain 2: DIQMNQSPSSLSASLGDTITITCRASQNIYIWLSWYQQKPGNIPKLLIYKASNLHTGVPSRFSGSGSGTDFTLTISTLQPEDIATYFCLQGQSYPLTFGAGTKLEMK
B2: the “GAL3-TIM3 assembly, % of level without antibody” value is recorded as “to 50-75% of levels observed in the absence of a GAL3-targeted antibody”.

B3: 846.2H3 (protein)
chain 1: QIQLVQSGPELKKPGETVKISCKASGYTFTNYGMNWVKQAPGKGLKWMGWINTYTGEPSYADDFKGRFAFSLETSASTAYLQINNLKNEDMATYFCARWGGYDGDYYAMDYWGQGTSVTVSS
chain 2: NIMMTQSPSSLAVSAGEKVTMSCKSSQSVLYSSNQKNYLAWYQQKPGQSPKLLIYWASTRESGVPDRFTGSGSGTDFTLTISSVQPEDLAVYYCHQYLSSLTFGAGTKLELK
As to B3, the “GAL3-TIM3 assembly, % of level without antibody” value is given as “to less than 5% of levels observed in the absence of a GAL3-targeted antibody”.

B4: 846.1F5 (protein)
chain 1: QIQLVQSGPELKKPGETVKISCKASGYTFTNYGMNWVKQAPGKGLKWMGWINTYTGEPSYADDFKGRFAFSLETSASTAYLQINNLKNEDMATYFCARWGGYDGDYYAMDYWGQGTSVTVSS
chain 2: NIMMTQSPSSLAVSAGEKVTMSCKSSQSVLYSSNQKNYLAWYQQKPGQSPKLLIYWASTRESGVPDRFTGSGSGTDFTLTISSVQPEDLAVYYCHQYLSSLTFGAGTKLELK
As for B4, the “GAL3-TIM3 assembly, % of level without antibody” value was “to 5-20% of levels observed in the absence of a GAL3-targeted antibody”.

B5: mIMT001 (IMT001) (protein)
chain 1: QIQLVQSGPELKKPGETVKISCKASGYTFTNYGMNWVKQAPGKGLKWMGWINTNTGEPTYVEEFKGRFAFSLETSASTAYLQINNLKNEDTATYFCAPYDNFFAYWGQGTLVTVSA
chain 2: DIVITQDELSNPVTSGESVSISCRSSKSLLYKDGKTYLNWFLQRPGQSPQLLIYLMSTHASGVSDRFSGSGSGTDFTLEISRVKAEDVGVYYCQQLVDYPLTFGAGTKLELK
In the case of B5, the “GAL3-TIM3 assembly, % of level without antibody” value is “to 5-20% of levels observed in the absence of a GAL3-targeted antibody”.

B6: 6H6.2D6 (protein)
chain 1: QIQLVQSGPELKKPGETVKISCKASGYTFTTYGMSWVKQAPGKGLKWMAWINTYSGVPTYADDFKGRFAFSLETSASTAYLQINNLTNEDTATYFCARGPYAMDYWGQGTSVTVSS
chain 2: DIQMTQTTSSLSASLGDRVTISCSASQGISNYLNWYQQKPDGTVKLLIYYTSSLHSGVPSRFSGSGSGTDYSLTISNLEPEDIATYYCQQYSELPYTFGSGTKLEIK
Turning to B6, the “GAL3-TIM3 assembly, % of level without antibody” value was “to 5-20% of levels observed in the absence of a GAL3-targeted antibody”.

B7: 19B5.2E6 (protein)
chain 1: QIQLVQSGPELKKPGETVKISCKASGYTFTTYAMSWVKQAPGKGLKWMGWINTYSGVPTYADDLKGRFAFSLETSASTAYLQINNLKNEDTATYFCARGPYAMDYWGQGTSVTVSS
chain 2: DIQMTQTTSSLSASLGDRVTISCSASQGINNYLNWYQQKPDGTVKLLIYYASSLHSGVPSRFSGSGSGTDYSLTISNLEPEDIATYYCQQYSQVPYTFGSGTKLEIK
As to B7, the “GAL3-TIM3 assembly, % of level without antibody” value is recorded as “to 20-50% of levels observed in the absence of a GAL3-targted antibody”.

B8: 23H9.2E4 (protein)
chain 1: QIQLVQSGPELKKPGETVKISCKASGYTFTTYAMSWVKQAPGKGLKWMGWINTYSGVPTYADDLKGRFAFSLETSASTAYLQINNLKNEDTATYFCARGPYAMDYWGQGTSVTVSS
chain 2: DIQMTQTTSSLSASLGDRVTISCSASQGINNYLNWYQQKPDGTVKLLIYYASSLHSGVPSRFSGSGSGTDYSLTISNLEPEDIATYYCQQYSQVPYTFGSGTKLEIK
Turning to B8, the “GAL3-TIM3 assembly, % of level without antibody” value is “to 20-50% of levels observed in the absence of a GAL3-targted antibody”.

B9: 20H5.A3 (protein)
chain 1: QIQLVQSGPELKKPGESVKISCKASGYAFTTYGMSWVQQAPGKGLKWMGWVNTYSGVPTCADDFKGRFAFSLETSASTAYLQINNLRNEDTATYFCARGPYAMDYWGQGTSVTVSS
chain 2: DIQMTQTTSSLSASLGDRVTINCSASQDISNYLNWYQQKPDGTVKLLIYYTSSLLSGVPSRFSGSGSGTDYSLTISNLEPEDIATYFCQQYSKLPYTFGSGTHLEIK
Consider B9, for which the “GAL3-TIM3 assembly, % of level without antibody” value is listed as “to 5-20% of levels observed in the absence of a GAL3-targeted antibody”.

B10: 13H12.2F8 (protein)
chain 1: QIQLVQSGPELKKPGETVKISCKASGYTFTTYGMSWVKQAPGKGLKWMGWINTYSGVPTYADDFKGRFAFSLETSASTAYLQINNLKNEDTATYFCAVPYEYDGAYWGQGTLVTVSA
chain 2: not shown
With B10, the “GAL3-TIM3 assembly, % of level without antibody” value is reported as “to 20-50% of levels observed in the absence of a GAL3-targted antibody”.

B11: 14H10.2C9 (protein)
chain 1: QIQLVQSGPELKKPGETVKISCKASGYTFTTYGMGWVKQAPGKDLKWMGWINTYSGVPTYADDFKGRFAFSLETSASTAYLQISNLKNEDTATYFCSTPYEYDGAYWGQGTLVTVSA
chain 2: not shown
As for B11, the “GAL3-TIM3 assembly, % of level without antibody” value is “to 50-75% of levels observed in the absence of a GAL3-targeted antibody”.

B12: 19D9.2E5 (protein)
chain 1: QIQLVQSGPELKKPGETVKISCKASGYTFTTYGMGWVKQAPGKGLKWMGWINTYSGVPTYADDFKGRFAFSLETSTSTAYLQINNLKNEDMATYFCATPYEYDGAYWGQGTLVTVSA
chain 2: not shown
On to B12, for which the “GAL3-TIM3 assembly, % of level without antibody” value is given as “to 50-75% of levels observed in the absence of a GAL3-targeted antibody”.

B13: 2D10.2B2 (protein)
chain 1: QVQLQQSGPELVKPGASVKISCKASGYTFTDYYINWVKQRPGQGLEWIGWIYPGSNDTKYNEKFKGKATLTVDTSSSTAYMQLGSLTSEDSAVYFCANYFGCSGWFFDVWGTGTTVTVSS
chain 2: DIVMTQAAFSNPVTLGTSASISCRSSKSLLHSDGITYLYWYLQRPGQSPQLLIYRMSNLASGVPDRFSGSGSGTDFTLRISRVEAEDVGVYYCAQMIEFPLTFGAGTILELK
Consider B13, for which the “GAL3-TIM3 assembly, % of level without antibody” value is on record as “to 5-20% of levels observed in the absence of a GAL3-targeted antibody”.

B14: 4A11.2B5 (protein)
chain 1: QVQLQQSGPELVKPGASVKISCKASGYSFTNYYIHWVKQRPGQGLEWIGWIYPGSGNTNYNEKFKGKATLTADTSSSTTNMQLSSLTSEDSAVYYCSTAPGGFDVWGSGTTVTVSS
chain 2: DIVMTQAAFSNPVTLGTSASISCRSSKSLLHSDGITYLYWYLQRPGQSPQLLIYRMSNLASGVPDRFSGSGSGTDFTLRISRVEAEDVGVYYCAQMLEFPLTFGAGTKLELK
Take B14: the “GAL3-TIM3 assembly, % of level without antibody” value was “to 50-75% of levels observed in the absence of a GAL3-targeted antibody”.

B15: 846T.1H2 (protein)
chain 1: QIQLVQSGPELKKPGETVKISCKASGYTFTNYGMNWVKQAPGKGLKWMGWINTNTGEPTYAEEFKGRFAFSLETSASTAYLQINNLKNEDTATYFCATGGGNWDFDYWGQGTTLTVSS
chain 2: not shown
In the case of B15, the “GAL3-TIM3 assembly, % of level without antibody” value is “to 5-20% of levels observed in the absence of a GAL3-targeted antibody”.

B16: 4G2.2G6 (protein)
chain 1: QIQLVQSGPDLKKPGETVKISCKASGYTFTTYVMSWVKQAPGKDLKWMGWINTHSGVPTYADDFKGRFDFSLETSANTAFLQINNLKNEDTATYFCTRDGNDGDAMDNWGQGTSVTVSS
chain 2: not shown
With B16, the “GAL3-TIM3 assembly, % of level without antibody” value is given as “to 50-75% of levels observed in the absence of a GAL3-targeted antibody”.

B17: 13A12.2E5 (protein)
chain 1: QIQLVQSGPELKKPGETVKISCKTSGYKFKTYVMSWVKQAPGKALKWMGWINTYSGVPTYADDFKGRFAFSLETSASTAYLEIINLKNEDTATYFCARDGNYGDPMDYWGQGTSVTVSS
chain 2: DVVMTQTPLTLSVAIGQPASISCKSSQSLLYTNGKTYLNWLLQRPGQSPKRLIYLLSKLDSGVPDRFSASGSGTDFTLKISRVEAEDLGVYYCLQSTHFPLTFGAGTKLEMK
Take B17: the “GAL3-TIM3 assembly, % of level without antibody” value was “to 50-75% of levels observed in the absence of a GAL3-targeted antibody”.

B18: 3B11.2G2 (protein)
chain 1: QIQLVQSGPELKKPGETVKISCKTSGYKFKTYVMSWVKQAPGKALKWMGWINTYSGVPTYADDFKGRFAFSLETSASTAYLEIINLKNEDTATYFCARDGNYGDPMDYWGQGTSVTVSS
chain 2: not shown
For the protein B18, the “GAL3-TIM3 assembly, % of level without antibody” value is listed as “to 50-75% of levels observed in the absence of a GAL3-targeted antibody”.

The record behind these values is US20260234269.
